# Biological target: lef_bacan lef (UniProt P15917)
row,Substance,effect of a mutation on the interaction
1,Protective antigen (Bacillus anthracis) (from UniProt P13423) H240A,disrupting interaction
2,Protective antigen (Bacillus anthracis) (from UniProt P13423) L216A,disrupting interaction

# From IntAct's records for PubMed 21037566
